These results are taken from patent US20250179144A1.

The target in assay [1] is G115 Vγ9Vδ2+ TCR His85γ-Ala expressed on transfected HEK293T cells. Description: flow cytometry, tetramer-PE against CD3-APC on HEK293T cells co-transfected with CD3 and G115 His85γ-Ala TCR; SAv control 27. (In general: A flow cytometer gives signals particle by particle.)
In assay [2] the target is G115 Vγ9Vδ2+ TCR Glu52δ-Ala expressed on transfected HEK293T cells. Description: flow cytometry, tetramer-PE against CD3-APC on HEK293T cells co-transfected with CD3 and G115 Glu52δ-Ala TCR; SAv control 32.
Assay [3] has as its target G115 Vγ9Vδ2+ TCR wild-type expressed on transfected cells. Put plainly: flow cytometry, tetramer-PE against CD3-APC on HEK293T cells co-transfected with CD3 and G115 WT TCR; SAv control 27.
The target of assay [4] is G115 Vγ9Vδ2+ TCR Lys53δ-Ala expressed on transfected HEK293T cells. Put plainly: flow cytometry, tetramer-PE against CD3-APC on HEK293T cells co-transfected with CD3 and G115 Lys53δ-Ala TCR; SAv control 27.
In assay [5] the target is full-length human BTN3A1 on transfected cells (human) (UniProt O00481). Description: flow cytometry, γδTCR tetramer-PE on BTN3A1-transfected NIH-3T3 cells treated with isotype IgG1κ (black number); SAv control 26.
The target in assay [6] is full-length human BTN3A1 on transfected cells pre-treated (cross-linked) with anti-BTN3A mAb clone 20.1 (human). Description: flow cytometry, FRET (YG 670/30) between TCR tetramer-PE and anti-BTN3A 20.1-AF647 on BTN3A1+ NIH-3T3 cells; with IgG1κ-AF647 the gate holds 0, with SAv 0.
Assay [7] deals with full-length human BTN3A1 on transfected cells (human) (UniProt O00481). Put plainly: flow cytometry, control tetramer-PE on BTN3A1-transfected NIH-3T3 cells treated with isotype IgG1κ (black number); SAv control 25.

Chain of mCD1d tet. ctl (P11609 22-305): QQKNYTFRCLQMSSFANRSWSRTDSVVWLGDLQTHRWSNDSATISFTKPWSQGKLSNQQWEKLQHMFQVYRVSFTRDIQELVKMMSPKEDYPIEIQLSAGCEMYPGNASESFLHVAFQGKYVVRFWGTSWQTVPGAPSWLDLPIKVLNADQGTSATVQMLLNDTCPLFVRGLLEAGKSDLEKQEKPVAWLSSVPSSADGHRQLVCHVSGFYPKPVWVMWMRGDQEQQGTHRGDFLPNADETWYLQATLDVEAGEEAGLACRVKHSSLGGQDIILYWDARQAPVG
Chain of soluble G115 Vγ9Vδ2+ TCR wild-type (TCR delta): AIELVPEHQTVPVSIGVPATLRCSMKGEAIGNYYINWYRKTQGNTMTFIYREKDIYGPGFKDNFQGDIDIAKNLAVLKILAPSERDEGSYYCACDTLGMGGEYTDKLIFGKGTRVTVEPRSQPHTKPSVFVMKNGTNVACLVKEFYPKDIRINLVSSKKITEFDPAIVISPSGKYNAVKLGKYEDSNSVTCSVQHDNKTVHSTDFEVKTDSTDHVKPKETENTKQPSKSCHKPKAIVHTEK
Chain of soluble G115 Vγ9Vδ2+ TCR wild-type (TCR gamma): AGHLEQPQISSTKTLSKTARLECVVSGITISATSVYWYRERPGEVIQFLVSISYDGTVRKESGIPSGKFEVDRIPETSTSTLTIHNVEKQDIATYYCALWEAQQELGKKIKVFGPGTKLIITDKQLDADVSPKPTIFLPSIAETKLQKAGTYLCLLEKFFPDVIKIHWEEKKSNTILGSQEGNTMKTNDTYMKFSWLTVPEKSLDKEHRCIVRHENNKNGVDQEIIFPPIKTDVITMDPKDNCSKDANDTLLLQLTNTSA

In the case of “BTN2A1-BTN3A1-zipper ectodomain complex (construct #1, long linker version with high affinity zippers) (ligand)”, the MFI of PE in assay [1] came out at 63; in assay [2], 72; in assay [3] it was 102; in assay [4] it was 753.
With “chimeric γδTCR tetramer: G115 pAg-reactive Vγ9+ γ-chain with 9C2 Vδ1+ δ-chain”, the MFI of PE (GFP+ gate) in assay [5] was 24.
For the substance soluble G115 Vγ9Vδ2+ TCR wild-type, the % cells in the FRET gate in assay [6] is 19%. Further, in assay [5], the MFI of PE (GFP+ gate) amounted to 35.
With mCD1d tet. ctl, the MFI of PE amounted to 22 in assay [1], 26 in assay [2], 20 in assay [3] and 23 in assay [4]. Moreover, in assay [7], the MFI of PE (GFP+ gate) came to 32.
With “soluble BTN2A1 ectodomain lacking Cys247 (monomeric) (from UniProt Q7KYR7 29-246) (ligand)”, the MFI of PE in assay [1] was found to be 28; in assay [2], 469; in assay [3] it was 282; in assay [4], 507.
